Data taken from PMC4192059 (Molecular microbiology, 2014).

Target: T1, PPE41 (M. tuberculosis), chain of the crystallized complex (M. tuberculosis, UniProt Q79FE1 1-194)
T1 sequence: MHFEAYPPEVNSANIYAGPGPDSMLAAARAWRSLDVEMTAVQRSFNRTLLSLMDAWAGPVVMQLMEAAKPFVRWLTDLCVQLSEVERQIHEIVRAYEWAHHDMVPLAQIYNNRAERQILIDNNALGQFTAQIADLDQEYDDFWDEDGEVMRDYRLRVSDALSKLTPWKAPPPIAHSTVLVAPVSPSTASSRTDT
Experiment: crystal structure

B1: PE25 (M. tuberculosis), chain of the crystallized complex (natural protein)
chain: MSFVITNPEALTVAATEVRRIRDRAIQSDAQVAPMTTAVRPPAADLVSEKAATFLVEYARKYRQTIAAAAVVLEEFAHALTTGADKYATAEADNIKTFS
- binding result: binds
